B1: TPR t1 (parent)
chain: GACCAAUCUGCCCUCAGAGCUCGAGAACAUCUUCGGAUGCAGAGGAGGCAGGCUUCGGUGGCGCGAUAGCGCCAACGUCCUCAACCUCCAAUGCAUCCCACCACAUGAUGAUGCCUGAAGAGCCUUGGUUUUUUG

The series covers variants of B1. Put plainly: polymerase ribozyme fitness, log enrichment relative to wild type (log ratio); higher = more active; in vitro selection for triplet polymerase activity. The method in brief:
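Input and output libraries were sequenced on Illumina after a single in vitro selection round, run in triplicate on PCR-built, transcribed mutant libraries of each subunit of a heterodimeric triplet polymerase ribozyme. Selection annealed libraries to a biotinylated primer, the partner subunit and triplets, incubated them frozen at −7 °C, then gel-excised extended constructs for streptavidin-bead capture and RT-PCR. Genotypes with ≥10 input reads and ≥1 read per output were kept. Fitness is the logarithm, taken in base 2, of genotype enrichment divided by wild-type enrichment, using inverse-variance-weighted replicate averages.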
For C72U G110U U125A, the “polymerase ribozyme fitness (log ratio)” value is -2.31. The same measure for C72U C102A G120U U130G: -2.46. As to G77C U106A A111C C114G U131C, the “polymerase ribozyme fitness (log ratio)” value is -5.23. The same measure for C76G U81C C94A G117A: -2.22; for U78C U92G C114U: -2.3; for A74C U106A C123U: 1.18.

For C79A U112C G127A, the “polymerase ribozyme fitness (log ratio)” value is -1.43. For C76A C89A U133C, the “polymerase ribozyme fitness (log ratio)” value is -2.43. Take C73A U87G: the “polymerase ribozyme fitness (log ratio)” value is -0.467.

With C79G A83G C89G, the “polymerase ribozyme fitness (log ratio)” value is -3.62. With C73U U87A A105U the figure was -1.83.

On to C73U C82A, for which the “polymerase ribozyme fitness (log ratio)” value was determined as 0.468. With U78C A105C A121C the figure was -0.547; with C72U G135C, -0.00236. With U78A C80A C94G U133A, the “polymerase ribozyme fitness (log ratio)” value was -6.19. With U78A C115G the figure was -2.13. The same measure for C79U C124G: 1.81; for C79U C124A: 1.12; for G77U C115G A118C: -5.42.

C73A G117U: the “polymerase ribozyme fitness (log ratio)” value is -2.74. With U78C U87C C115U the figure was -0.381; with U78A C104U C115U, -1.54.

Turning to C73U C86A, the “polymerase ribozyme fitness (log ratio)” value was -0.276.

Turning to A75U C99U U109G C115U U116A, the “polymerase ribozyme fitness (log ratio)” value was -7.29. With C73A C85U U116G the figure was -2.18; with C73U C89U C101U, -0.461; with C73G U109G, -6.77. With C73G U109A the figure was -5.36. For C72U C114U, the “polymerase ribozyme fitness (log ratio)” value is -1.89. The same measure for C73U C98A: -4.94; for C73A C86U G128A: -1.81; for A74U U126G: -1.89. With C73A C104A the figure was -1.07; with C73A C86U A100U C102A, -2.87. The same measure for U78A U130G: -0.269; for G77U C94U: 0.0625; for C73G C85U G93U A95G C123A: -3.28. Take C73U U81A: the “polymerase ribozyme fitness (log ratio)” value was -3.27. As for C73G G127A, the “polymerase ribozyme fitness (log ratio)” value is -1.82. As to C72U U78C C86G C115U, the “polymerase ribozyme fitness (log ratio)” value is -1.64. On to U78G C88U U92G G120C U134G, for which the “polymerase ribozyme fitness (log ratio)” value is -1.71. The same measure for G77U A100C A118U U129C: -1.45; for C79G U96A: -2.96; for C80A A84G C98U: -6.69. With C79G G120A U130C the figure was -1.26; with U78A U112C G120A, -0.475; with A74U C114G C124A U125C, -1.43.

For the variant C72U U132C, the “polymerase ribozyme fitness (log ratio)” value was -0.841. The same measure for A74U G110C: -4.41; for G77C C115A: 0.325. For the variant G77A C89A C94U G122A, the “polymerase ribozyme fitness (log ratio)” value is -4.01. On to G77A, for which the “polymerase ribozyme fitness (log ratio)” value was -0.264. With G77U the figure was -0.194. Consider G77C, for which the “polymerase ribozyme fitness (log ratio)” value was -0.424. The same measure for A74U G93U G117C: -5.37; for U78G C80U G93U: -1.61; for C79U C94G: -0.831. The same measure for C79U C94A: -4.5; for A74U U87A: -0.842; for U78C A83G U106C: -1.19. Turning to A75G A83C G93C, the “polymerase ribozyme fitness (log ratio)” value is -1.73. On to C73G C101U U133A, for which the “polymerase ribozyme fitness (log ratio)” value was -1.03. With C73U C80A A90U U106A the figure was -5.89. As to C73U U96A, the “polymerase ribozyme fitness (log ratio)” value was -1.16. With C73A U126A the figure was -1.73; with C73U U129G, -0.782; with C73U U129A, -1.05. A74C U130A: the “polymerase ribozyme fitness (log ratio)” value is -0.25. The same measure for G77U C123U: 1.47. As to G77U C123G, the “polymerase ribozyme fitness (log ratio)” value was determined as 1.23. For C76G G93A C104U U133A, the “polymerase ribozyme fitness (log ratio)” value was -0.348. With C73A C123A G135C the figure was 0.5; with C79A C94A, -2.38; with C73A A91U C94U, -2.58. The same measure for C73U C86G C115G U129A: -5.03.

U78G U130G: the “polymerase ribozyme fitness (log ratio)” value is -0.347. In the case of U78A C114A, the “polymerase ribozyme fitness (log ratio)” value was -1.63. With C76U U112A U116G, the “polymerase ribozyme fitness (log ratio)” value is -2.03. The same measure for U78C G93U C124A: 0.632; for C73U C88U: -0.361. As for C73G C115G, the “polymerase ribozyme fitness (log ratio)” value was -0.331. Consider C73G C115U, for which the “polymerase ribozyme fitness (log ratio)” value was -1.97.

As to G77A C88G, the “polymerase ribozyme fitness (log ratio)” value was -0.754. In the case of U78A C89U C104U, the “polymerase ribozyme fitness (log ratio)” value was -1.1.

C72U C114U C123U U130A G135A: the “polymerase ribozyme fitness (log ratio)” value was -2.43.

For C73A C124G, the “polymerase ribozyme fitness (log ratio)” value stood at 0.687. With U78C C94U the figure was -0.58. The same measure for C79U G113U U116A: -5.49.

Regarding G77A A91U, the “polymerase ribozyme fitness (log ratio)” value is -1.6. The same measure for C73G G110A: -1.17; for C79G C82U U130A: -2.13; for G77U U78C A95U C123G: 0.706.

As for U78A C94A U125G, the “polymerase ribozyme fitness (log ratio)” value was -2.31. With U78C U125A the figure was -0.432.

In the case of A74C U78G C80U C115A, the “polymerase ribozyme fitness (log ratio)” value was -2.23. The same measure for U78C G127U: -1.04. With C72U U126C, the “polymerase ribozyme fitness (log ratio)” value was -0.816. With C79G C89A the figure was -5.03; with C73A A90U A105G G113C G122C, -3.65; with C79U C89U C102U G120C, -2.83.

On to C73A A74C, for which the “polymerase ribozyme fitness (log ratio)” value was -0.174. As to C73A G128C, the “polymerase ribozyme fitness (log ratio)” value is -2.05. As for A74U U125A U131G, the “polymerase ribozyme fitness (log ratio)” value is -0.852.

Turning to A74C G77C, the “polymerase ribozyme fitness (log ratio)” value is -0.117. Consider G77U C88G U92A G113C G122A C123G, for which the “polymerase ribozyme fitness (log ratio)” value was -4.68. As to C73U G120A, the “polymerase ribozyme fitness (log ratio)” value was found to be 0.593.

Regarding G77A C79U C124A, the “polymerase ribozyme fitness (log ratio)” value was 1.87. As for C73U C79U C104U, the “polymerase ribozyme fitness (log ratio)” value is -0.0392. Consider G77U U81G, for which the “polymerase ribozyme fitness (log ratio)” value is -3.24. Regarding G77C C114A C124U, the “polymerase ribozyme fitness (log ratio)” value is -2.41. The same measure for C72U G93A C102U G117A: -4.25; for G77U A91U U132A: -2.14. Consider C79G C123U, for which the “polymerase ribozyme fitness (log ratio)” value was found to be 0.127. With C79A U106C, the “polymerase ribozyme fitness (log ratio)” value is -0.96. Consider C72U G128U, for which the “polymerase ribozyme fitness (log ratio)” value is -1.48. Turning to C79A U129A, the “polymerase ribozyme fitness (log ratio)” value is -2.44. Regarding C72U U96G U126C, the “polymerase ribozyme fitness (log ratio)” value is -1.75. On to C73A C86U C124A, for which the “polymerase ribozyme fitness (log ratio)” value is 1.85. U78G C102U: the “polymerase ribozyme fitness (log ratio)” value is -1.93. With C73U A90C A95C the figure was -1.36; with A74C A84U, -0.261.

With C76A G117A C124A, the “polymerase ribozyme fitness (log ratio)” value is -0.549.

Regarding C79A A95U, the “polymerase ribozyme fitness (log ratio)” value is -1.9. In the case of A74U U96C, the “polymerase ribozyme fitness (log ratio)” value is -0.884. With C73G U129G the figure was -2.27; with C76U U81A, -0.892; with G77C C94U, -0.725. In the case of U78A G122A, the “polymerase ribozyme fitness (log ratio)” value is -1.42. The same measure for C79U C82A: -1.23; for C79U U81A: -1.75; for C73A C123A: 1.63. For the variant C73A C123G, the “polymerase ribozyme fitness (log ratio)” value was 1.74. As for C73U C124A G127C, the “polymerase ribozyme fitness (log ratio)” value is 1.61. With C73U C79A A90C C115A the figure was -2.96; with C73U G113A, -0.0568.

For the variant C73G G117A C124A, the “polymerase ribozyme fitness (log ratio)” value is 0.864. The same measure for U78A U92G U125G: -4.08; for C73U C97U C102A U130C: -2.5. In the case of G77A U116A, the “polymerase ribozyme fitness (log ratio)” value is -4.07. With A75U C76G C88A A90U C114U the figure was -2.85. As to C79G U126A G128U, the “polymerase ribozyme fitness (log ratio)” value is -4.31. With C73U U78C U92G, the “polymerase ribozyme fitness (log ratio)” value is -2.25.

On to C73U U96C C99U, for which the “polymerase ribozyme fitness (log ratio)” value was -3.39. With U78C A121U the figure was 1.42; with C76U A90G A105U, -1.84.

U78G G93A: the “polymerase ribozyme fitness (log ratio)” value is -0.0742. Turning to A75G C114A, the “polymerase ribozyme fitness (log ratio)” value is -2.36. With C76G A90C C101U the figure was -1; with C79G C89U U112A, -2.07; with A74C C101G, -2.14. For G77C C114A G127C, the “polymerase ribozyme fitness (log ratio)” value was -2.76. Turning to G77U C115G G128C, the “polymerase ribozyme fitness (log ratio)” value was -2.98. Regarding C73A C114A, the “polymerase ribozyme fitness (log ratio)” value is -1.84. The same measure for C72U C101G: -2.18; for U78C U112A: 1.12. Regarding C76U C123G, the “polymerase ribozyme fitness (log ratio)” value stood at 0.558.

As to U78G U116C U133A, the “polymerase ribozyme fitness (log ratio)” value was -0.304. The same measure for U78G U109A: -6.21. In the case of C72U U81G C85A, the “polymerase ribozyme fitness (log ratio)” value is -3.96. Regarding C76U A105C, the “polymerase ribozyme fitness (log ratio)” value is -2.5. The same measure for A74U A111C: -1.62. The same measure for C73G U133G: -1.21. For C73A C102U G128C, the “polymerase ribozyme fitness (log ratio)” value was -3.88. As to U78G C88U A91U A95U, the “polymerase ribozyme fitness (log ratio)” value was -3.4. With U78C G117A the figure was -1.35. As for U78C G117C, the “polymerase ribozyme fitness (log ratio)” value is -3.6. The same measure for U78A C82G C115A U130A: -0.912.
